Source: patent US20140087995A1 (published 2014)
Numbered stars: 1 amine (or outer) side, 2 acyl side, 3 side chain; on linkers, the order of the positions; unused ones are H or OH. Bridge positions count the residues as written; N and C are the ends. Side chains are listed from the residue outwards. Ends that are not written are not given here. * marks the point of attachment. C20 diacid = O=C(O)CCCCCCCCCCCCCCCCCCC(=O)*; γGlu = O=C(O)[C@H](CCC(=O)[*:2])N[*:1]

T1: human calcitonin receptor (human, UniProt P30988 25-474)
T1 construct: whole, on cells; Membranes of a stably transfected BHK cell line (Assay VII); also called hCTR; hCT
T1 sequence (looked up): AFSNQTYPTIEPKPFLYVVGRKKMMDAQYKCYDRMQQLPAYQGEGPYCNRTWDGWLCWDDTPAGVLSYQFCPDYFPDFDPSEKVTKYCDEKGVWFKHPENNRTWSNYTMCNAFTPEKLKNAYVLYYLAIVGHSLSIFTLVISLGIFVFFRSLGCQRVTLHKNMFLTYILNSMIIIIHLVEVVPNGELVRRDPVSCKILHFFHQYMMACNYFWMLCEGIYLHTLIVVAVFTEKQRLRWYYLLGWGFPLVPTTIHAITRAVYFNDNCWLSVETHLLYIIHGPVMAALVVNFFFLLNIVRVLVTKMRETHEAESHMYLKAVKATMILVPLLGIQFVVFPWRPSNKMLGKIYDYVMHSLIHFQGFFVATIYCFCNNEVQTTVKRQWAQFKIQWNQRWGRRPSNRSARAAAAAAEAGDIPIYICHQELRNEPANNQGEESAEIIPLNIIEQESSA

T2: rat amylin receptor (rat calcitonin receptor + rat RAMP 3) (rat, UniProt P32214 25-516; Q9JJ73 23-147)
T2 construct: whole, on cells; Membranes of transiently transfected BHK tk'ts 13 cells (Assay VI); also called rAmylin-R; rat amylin 3(a) receptor
T2 sequence (looked up) 1: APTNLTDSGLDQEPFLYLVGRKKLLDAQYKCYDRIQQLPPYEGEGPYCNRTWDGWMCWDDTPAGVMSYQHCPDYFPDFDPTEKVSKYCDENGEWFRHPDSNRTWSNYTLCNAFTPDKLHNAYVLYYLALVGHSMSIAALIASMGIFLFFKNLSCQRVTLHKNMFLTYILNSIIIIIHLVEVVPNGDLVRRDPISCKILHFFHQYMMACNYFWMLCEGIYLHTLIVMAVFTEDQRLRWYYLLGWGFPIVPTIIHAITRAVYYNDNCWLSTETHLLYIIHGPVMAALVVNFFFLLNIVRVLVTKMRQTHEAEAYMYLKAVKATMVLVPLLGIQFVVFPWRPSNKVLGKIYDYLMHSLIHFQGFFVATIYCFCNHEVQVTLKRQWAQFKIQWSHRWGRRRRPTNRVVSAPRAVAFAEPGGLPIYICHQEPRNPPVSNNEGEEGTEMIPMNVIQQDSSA
T2 sequence (looked up) 2: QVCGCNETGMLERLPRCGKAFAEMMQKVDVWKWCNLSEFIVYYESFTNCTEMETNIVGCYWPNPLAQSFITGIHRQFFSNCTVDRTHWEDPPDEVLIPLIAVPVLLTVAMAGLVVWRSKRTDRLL

T3: rat calcitonin receptor (rat, UniProt P32214 25-516)
T3 construct: whole, on cells; Membranes of transiently transfected BHK tk'ts 13 cells (Assay VIII); also called rCTR
T3 sequence (looked up): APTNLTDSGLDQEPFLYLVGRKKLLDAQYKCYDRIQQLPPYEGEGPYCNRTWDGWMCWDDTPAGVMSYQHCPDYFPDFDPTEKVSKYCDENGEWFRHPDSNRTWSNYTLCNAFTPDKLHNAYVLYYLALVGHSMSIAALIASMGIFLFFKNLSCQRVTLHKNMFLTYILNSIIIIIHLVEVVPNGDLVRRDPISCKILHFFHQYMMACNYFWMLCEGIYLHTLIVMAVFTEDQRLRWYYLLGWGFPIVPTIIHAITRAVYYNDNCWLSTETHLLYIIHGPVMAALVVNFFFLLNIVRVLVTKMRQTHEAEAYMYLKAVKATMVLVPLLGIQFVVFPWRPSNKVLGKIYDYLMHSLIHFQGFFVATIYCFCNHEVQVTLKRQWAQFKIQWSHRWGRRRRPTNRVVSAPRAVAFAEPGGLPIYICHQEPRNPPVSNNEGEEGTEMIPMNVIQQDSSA

B1: N^ε1-[(4S)-4-carboxy-4-(19-carboxynonadecanoylamino)butanoyl]-[Ala14,Arg17,Pro21,Pro27,Pro34]-h-amylin (peptide)
peptide: K([γGlu-C20 diacid])CNTATCATQRLAAFLRHSSPNFGAIPSSTNVGPNTY-NH2
modifications: disulfide 2-7; N-terminus assumed
SMILES: CC[C@H](C)[C@H](NC(=O)[C@H](C)NC(=O)CNC(=O)[C@H](Cc1ccccc1)NC(=O)[C@H](CC(N)=O)NC(=O)[C@@H]1CCCN1C(=O)[C@H](CO)NC(=O)[C@H](CO)NC(=O)[C@H](Cc1c[nH]cn1)NC(=O)[C@H](CCCNC(=N)N)NC(=O)[C@H](CC(C)C)NC(=O)[C@H](Cc1ccccc1)NC(=O)[C@H](C)NC(=O)[C@H](C)NC(=O)[C@H](CC(C)C)NC(=O)[C@H](CCCNC(=N)N)NC(=O)[C@H](CCC(N)=O)NC(=O)[C@@H](NC(=O)[C@H](C)NC(=O)[C@@H]1CSSC[C@H](NC(=O)[C@@H](N)CCCCNC(=O)CC[C@H](NC(=O)CCCCCCCCCCCCCCCCCCC(=O)O)C(=O)O)C(=O)N[C@@H](CC(N)=O)C(=O)N[C@@H]([C@@H](C)O)C(=O)N[C@@H](C)C(=O)N[C@@H]([C@@H](C)O)C(=O)N1)[C@@H](C)O)C(=O)N1CCC[C@H]1C(=O)N[C@@H](CO)C(=O)N[C@@H](CO)C(=O)N[C@H](C(=O)N[C@@H](CC(N)=O)C(=O)N[C@H](C(=O)NCC(=O)N1CCC[C@H]1C(=O)N[C@@H](CC(N)=O)C(=O)N[C@H](C(=O)N[C@@H](Cc1ccc(O)cc1)C(N)=O)[C@@H](C)O)C(C)C)[C@@H](C)O
notes: also called compound 94
B2: N^ε1-[(4S)-4-carboxy-4-(19-carboxynonadecanoylamino)butanoyl]-[Glu14,Arg17,Pro21,Pro27,His34,Glu35]-h-amylin (peptide)
peptide: K([γGlu-C20 diacid])CNTATCATQRLAEFLRHSSPNFGAIPSSTNVGHETY-NH2
modifications: disulfide 2-7; N-terminus assumed
SMILES: CC[C@H](C)[C@H](NC(=O)[C@H](C)NC(=O)CNC(=O)[C@H](Cc1ccccc1)NC(=O)[C@H](CC(N)=O)NC(=O)[C@@H]1CCCN1C(=O)[C@H](CO)NC(=O)[C@H](CO)NC(=O)[C@H](Cc1c[nH]cn1)NC(=O)[C@H](CCCNC(=N)N)NC(=O)[C@H](CC(C)C)NC(=O)[C@H](Cc1ccccc1)NC(=O)[C@H](CCC(=O)O)NC(=O)[C@H](C)NC(=O)[C@H](CC(C)C)NC(=O)[C@H](CCCNC(=N)N)NC(=O)[C@H](CCC(N)=O)NC(=O)[C@@H](NC(=O)[C@H](C)NC(=O)[C@@H]1CSSC[C@H](NC(=O)[C@@H](N)CCCCNC(=O)CC[C@H](NC(=O)CCCCCCCCCCCCCCCCCCC(=O)O)C(=O)O)C(=O)N[C@@H](CC(N)=O)C(=O)N[C@@H]([C@@H](C)O)C(=O)N[C@@H](C)C(=O)N[C@@H]([C@@H](C)O)C(=O)N1)[C@@H](C)O)C(=O)N1CCC[C@H]1C(=O)N[C@@H](CO)C(=O)N[C@@H](CO)C(=O)N[C@H](C(=O)N[C@@H](CC(N)=O)C(=O)N[C@H](C(=O)NCC(=O)N[C@@H](Cc1c[nH]cn1)C(=O)N[C@@H](CCC(=O)O)C(=O)N[C@H](C(=O)N[C@@H](Cc1ccc(O)cc1)C(N)=O)[C@@H](C)O)C(C)C)[C@@H](C)O
notes: also called compound 107
B3: N^ε1-[(4S)-4-carboxy-4-(19-carboxynonadecanoylamino)butanoyl]-[Glu14,Arg17,Pro21,Pro27,Pro34,Arg35]-h-amylin (peptide)
peptide: K([γGlu-C20 diacid])CNTATCATQRLAEFLRHSSPNFGAIPSSTNVGPRTY-NH2
modifications: disulfide 2-7; N-terminus assumed
SMILES: CC[C@H](C)[C@H](NC(=O)[C@H](C)NC(=O)CNC(=O)[C@H](Cc1ccccc1)NC(=O)[C@H](CC(N)=O)NC(=O)[C@@H]1CCCN1C(=O)[C@H](CO)NC(=O)[C@H](CO)NC(=O)[C@H](Cc1c[nH]cn1)NC(=O)[C@H](CCCNC(=N)N)NC(=O)[C@H](CC(C)C)NC(=O)[C@H](Cc1ccccc1)NC(=O)[C@H](CCC(=O)O)NC(=O)[C@H](C)NC(=O)[C@H](CC(C)C)NC(=O)[C@H](CCCNC(=N)N)NC(=O)[C@H](CCC(N)=O)NC(=O)[C@@H](NC(=O)[C@H](C)NC(=O)[C@@H]1CSSC[C@H](NC(=O)[C@@H](N)CCCCNC(=O)CC[C@H](NC(=O)CCCCCCCCCCCCCCCCCCC(=O)O)C(=O)O)C(=O)N[C@@H](CC(N)=O)C(=O)N[C@@H]([C@@H](C)O)C(=O)N[C@@H](C)C(=O)N[C@@H]([C@@H](C)O)C(=O)N1)[C@@H](C)O)C(=O)N1CCC[C@H]1C(=O)N[C@@H](CO)C(=O)N[C@@H](CO)C(=O)N[C@H](C(=O)N[C@@H](CC(N)=O)C(=O)N[C@H](C(=O)NCC(=O)N1CCC[C@H]1C(=O)N[C@@H](CCCNC(=N)N)C(=O)N[C@H](C(=O)N[C@@H](Cc1ccc(O)cc1)C(N)=O)[C@@H](C)O)C(C)C)[C@@H](C)O
B4: N^ε1-[(4S)-4-carboxy-4-(19-carboxynonadecanoylamino)butanoyl]-[Arg14,Arg17,Pro21,Pro27]-h-amylin (peptide)
peptide: K([γGlu-C20 diacid])CNTATCATQRLARFLRHSSPNFGAIPSSTNVGSNTY-NH2
modifications: disulfide 2-7; N-terminus assumed
SMILES: CC[C@H](C)[C@H](NC(=O)[C@H](C)NC(=O)CNC(=O)[C@H](Cc1ccccc1)NC(=O)[C@H](CC(N)=O)NC(=O)[C@@H]1CCCN1C(=O)[C@H](CO)NC(=O)[C@H](CO)NC(=O)[C@H](Cc1c[nH]cn1)NC(=O)[C@H](CCCNC(=N)N)NC(=O)[C@H](CC(C)C)NC(=O)[C@H](Cc1ccccc1)NC(=O)[C@H](CCCNC(=N)N)NC(=O)[C@H](C)NC(=O)[C@H](CC(C)C)NC(=O)[C@H](CCCNC(=N)N)NC(=O)[C@H](CCC(N)=O)NC(=O)[C@@H](NC(=O)[C@H](C)NC(=O)[C@@H]1CSSC[C@H](NC(=O)[C@@H](N)CCCCNC(=O)CC[C@H](NC(=O)CCCCCCCCCCCCCCCCCCC(=O)O)C(=O)O)C(=O)N[C@@H](CC(N)=O)C(=O)N[C@@H]([C@@H](C)O)C(=O)N[C@@H](C)C(=O)N[C@@H]([C@@H](C)O)C(=O)N1)[C@@H](C)O)C(=O)N1CCC[C@H]1C(=O)N[C@@H](CO)C(=O)N[C@@H](CO)C(=O)N[C@H](C(=O)N[C@@H](CC(N)=O)C(=O)N[C@H](C(=O)NCC(=O)N[C@@H](CO)C(=O)N[C@@H](CC(N)=O)C(=O)N[C@H](C(=O)N[C@@H](Cc1ccc(O)cc1)C(N)=O)[C@@H](C)O)C(C)C)[C@@H](C)O
notes: also called compound 83
B5: N^ε1-[(4S)-4-carboxy-4-(19-carboxynonadecanoylamino)butanoyl]-[Glu14,Arg17,Pro21,Pro27,Arg34,Glu35]-h-amylin (peptide)
peptide: K([γGlu-C20 diacid])CNTATCATQRLAEFLRHSSPNFGAIPSSTNVGRETY-NH2
modifications: disulfide 2-7; N-terminus assumed
SMILES: CC[C@H](C)[C@H](NC(=O)[C@H](C)NC(=O)CNC(=O)[C@H](Cc1ccccc1)NC(=O)[C@H](CC(N)=O)NC(=O)[C@@H]1CCCN1C(=O)[C@H](CO)NC(=O)[C@H](CO)NC(=O)[C@H](Cc1c[nH]cn1)NC(=O)[C@H](CCCNC(=N)N)NC(=O)[C@H](CC(C)C)NC(=O)[C@H](Cc1ccccc1)NC(=O)[C@H](CCC(=O)O)NC(=O)[C@H](C)NC(=O)[C@H](CC(C)C)NC(=O)[C@H](CCCNC(=N)N)NC(=O)[C@H](CCC(N)=O)NC(=O)[C@@H](NC(=O)[C@H](C)NC(=O)[C@@H]1CSSC[C@H](NC(=O)[C@@H](N)CCCCNC(=O)CC[C@H](NC(=O)CCCCCCCCCCCCCCCCCCC(=O)O)C(=O)O)C(=O)N[C@@H](CC(N)=O)C(=O)N[C@@H]([C@@H](C)O)C(=O)N[C@@H](C)C(=O)N[C@@H]([C@@H](C)O)C(=O)N1)[C@@H](C)O)C(=O)N1CCC[C@H]1C(=O)N[C@@H](CO)C(=O)N[C@@H](CO)C(=O)N[C@H](C(=O)N[C@@H](CC(N)=O)C(=O)N[C@H](C(=O)NCC(=O)N[C@@H](CCCNC(=N)N)C(=O)N[C@@H](CCC(=O)O)C(=O)N[C@H](C(=O)N[C@@H](Cc1ccc(O)cc1)C(N)=O)[C@@H](C)O)C(C)C)[C@@H](C)O

What was measured:
[1] = molecular target: T1, human calcitonin receptor; assay: ratio IC50 human calcitonin receptor / IC50 human amylin receptor (reference)
How it was run: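 Competition binding by SPA uses membrane preparations (35 ng/μL final) in pH 7.4 Hepes buffer with 1 mM CaCl2 and 5 mM MgCl₂. Incubation lasts 120 min at 25° C, and IC₅₀ comes from one-site fitting.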

[2] = molecular target: T2, rat amylin receptor (rat calcitonin …); assay: SPA competition with 125I-rat amylin, membranes of BHK cells with rat calcitonin receptor + rat RAMP3 (Assay VI)
rat calcitonin receptor [3] = molecular target: T3, rat calcitonin receptor; assay: ratio IC50 rat calcitonin receptor / IC50 rat amylin receptor (reference)
rat calcitonin receptor [4] = molecular target: T3, rat calcitonin receptor; assay: SPA competition with 125I-calcitonin, membranes of BHK cells with rat calcitonin receptor (Assay VIII)

Binder	Ratio hCT/hAmylin binding [1]	IC50 [2] [nM]	Ratio rCT/rAmylin binding (rat calcitonin receptor [3])	IC50 (rat calcitonin receptor [4]) [nM]
B1	46.3	0.397	280	111
B2	11.1	0.958	34.6	33.1
B3	38.6	0.339	45.5	15.4
B4	146	2.83	49.7	140
B5	28.5	1.06	81.1	86.1
